{"source": "paper PMC2566588", "biological_target": "CXCR4CFP (human) (UniProt P61073)", "sequence (P61073 whole entry)": "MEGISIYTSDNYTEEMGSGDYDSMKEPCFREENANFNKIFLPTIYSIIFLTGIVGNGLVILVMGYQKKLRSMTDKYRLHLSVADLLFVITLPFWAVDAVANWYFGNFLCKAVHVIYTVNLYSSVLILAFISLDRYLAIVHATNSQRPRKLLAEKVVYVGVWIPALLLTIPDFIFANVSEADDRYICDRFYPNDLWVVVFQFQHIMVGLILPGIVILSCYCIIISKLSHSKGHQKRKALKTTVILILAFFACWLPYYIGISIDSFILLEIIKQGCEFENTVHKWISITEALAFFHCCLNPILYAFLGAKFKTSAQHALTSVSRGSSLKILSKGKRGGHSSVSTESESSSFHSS", "test": "FRET or BRET; sensitized-emission FRET imaging as above; cells treated with chemokines (CCL3/MIP1α, CCL5/RANTES or CXCL12/SDF-1) for 20 min before imaging; N-FRET on the plasma membrane against the unstimulated control", "data": [{"substance": "CCR5YFP, P51681 1-352 (receptor; other documents disagree on this pair)", "values": [{"measurement": "increase of N-FRET with CCL3/MIP1α against the unstimulated control", "result": 30, "unit": "%"}, {"measurement": "increase of N-FRET with CCL5/RANTES against the unstimulated control", "result": 30, "unit": "%"}]}]}
